In the test the target is T1, human GPC3 (human, UniProt P51654 25-563).
T1 construct: range 25-563; soluble analyte; also called soluble human GPC3; glypican 3
The test can be described thus: SPR.

T1 sequence (P51654 25-563 limits assumed): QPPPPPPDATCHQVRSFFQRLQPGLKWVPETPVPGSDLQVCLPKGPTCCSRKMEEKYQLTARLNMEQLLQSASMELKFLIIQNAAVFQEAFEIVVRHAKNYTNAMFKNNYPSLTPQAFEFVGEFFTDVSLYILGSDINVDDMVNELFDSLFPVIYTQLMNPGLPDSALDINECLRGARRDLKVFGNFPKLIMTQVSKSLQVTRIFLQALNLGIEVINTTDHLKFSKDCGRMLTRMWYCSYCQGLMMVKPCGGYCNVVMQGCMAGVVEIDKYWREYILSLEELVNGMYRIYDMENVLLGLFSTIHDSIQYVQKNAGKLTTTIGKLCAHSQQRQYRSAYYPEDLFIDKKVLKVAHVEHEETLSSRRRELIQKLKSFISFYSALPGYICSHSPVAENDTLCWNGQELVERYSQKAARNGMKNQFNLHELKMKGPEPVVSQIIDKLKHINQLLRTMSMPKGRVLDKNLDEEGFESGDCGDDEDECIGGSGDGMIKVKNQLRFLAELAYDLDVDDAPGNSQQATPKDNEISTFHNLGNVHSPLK

B1: GCH055-G1dh/none-Hi-Kn010G3/L0212-k0 (antibody, V domains shown)
VH: QVQLVQSGAEVKKPGASVTVSCKASGYTFTDYEMHWIRQPPGEGLEWIGAIDGETPDTAYSDKFKGRVTLTADKSTSTAYMELSSLTSEDTAVYYCTRFYSYTYWGQGTLVTVSS
VL: DIVMTQSPLSLPVTPGEPASISCRPSQSPVHSNRNTYLHWYQQKPGQAPRLLIYKVSNRFSGVPDRFSGSGSGTDFTLKISRVEAEDVGVYYCYQGTQVPYTFGQGTKLEIKR
notes: one-arm
For the molecule B1, the Kd was determined as 0.614 nM.

B2: GCH055-G1dh/none-Hi-Kn010G3/L0222-k0 (antibody, V domains shown)
VH: QVQLVQSGAEVKKPGASVTVSCKASGYTFTDYEMHWIRQPPGEGLEWIGAIDGETPDTAYSDKFKGRVTLTADKSTSTAYMELSSLTSEDTAVYYCTRFYSYTYWGQGTLVTVSS
VL: DIVMTQSPLSLPVTPGEPASISCRSSQSPVHSNRNTYIQWYQQKPGQAPRLLIYKVSNRFSGVPDRFSGSGSGTDFTLKISRVEAEDVGVYYCYQGTQVPYTFGQGTKLEIKR
notes: one-arm
B2 had a Kd of 0.0039 nM.

B3: GCH056-G1dh/none-Hi-Kn010G3/L0011-k0 (antibody, V domains shown)
VH: QVQLVQSGAEVKKPGASVTVSCKASGYTFTDYEMHWIRQPPGEGLEWIGAIDGETPDTAYSQKFEGRVTLTADKSTSTAYMELSSLTSEDTAVYYCTRFYSYTYWGQGTLVTVSS
VL: DIVMTQSPLSLPVTPGEPASISCRSSQPLVHSNRNTYLHWYQQKPGQAPRLLIYKVSNRFSGVPDRFSGSGSGTDFTLKISRVEAEDVGVYYCGQGTQVPYTFGQGTKLEIKR
notes: one-arm
In turn, B3 gave a dissociation constant (Kd) of 4.31 nM. This Kd is about 1100-fold higher than that of the molecule before.

B4: GCH056-G1dh/none-Hi-Kn010G3/L0201-k0 (antibody, V domains shown)
VH: QVQLVQSGAEVKKPGASVTVSCKASGYTFTDYEMHWIRQPPGEGLEWIGAIDGETPDTAYSQKFEGRVTLTADKSTSTAYMELSSLTSEDTAVYYCTRFYSYTYWGQGTLVTVSS
VL: DIVMTQSPLSLPVTPGEPASISCRSSQPPVHSNRNTYLHWYQQKPGQAPRLLIYKVSNRFSGVPDRFSGSGSGTDFTLKISRVEAEDVGVYYCGQGTQVPYTFGQGTKLEIKR
notes: one-arm
Consider B4, for which the Kd is 1.16 nM.

B5: GCH059-G1dh/none-Hi-Kn010G3/L0000-k0 (antibody, V domains shown)
VH: QVQLVQSGAEVKKPGASVTVSCKASGYTFTDYEMHWIRQPPGEGLEWIGAIDGETPDTAYSQKFEGRVTLTADKSTSTAYMELSSLTEEDTAVYYCTRFYSYTYWGQGTLVTVSS
VL: DIVMTQSPLSLPVTPGEPASISCRSSQSLVHSNRNTYLHWYQQKPGQAPRLLIYKVSNRFSGVPDRFSGSGSGTDFTLKISRVEAEDVGVYYCGQGTQVPYTFGQGTKLEIKR
notes: one-arm
In turn, B5 yielded an equilibrium dissociation constant (Kd) of 5.7 nM.

B6: GCH057-G1dh/none-Hi-Kn010G3/L0000-k0 (antibody, V domains shown)
VH: QVQLVQSGAEVKKPGASVTVSCKASGYTFTDYEMHWIRQPPGEGLEWIGAIDGETPDTAYSEKFEGRVTLTADKSTSTAYMELSSLTSEDTAVYYCTRFYSYTYWGQGTLVTVSS
VL: DIVMTQSPLSLPVTPGEPASISCRSSQSLVHSNRNTYLHWYQQKPGQAPRLLIYKVSNRFSGVPDRFSGSGSGTDFTLKISRVEAEDVGVYYCGQGTQVPYTFGQGTKLEIKR
notes: one-arm
Molecule B6 yielded a Kd of 5.61 nM.

B7: GCH057-G1dh/none-Hi-Kn010G3/L0222-k0 (antibody, V domains shown)
VH: QVQLVQSGAEVKKPGASVTVSCKASGYTFTDYEMHWIRQPPGEGLEWIGAIDGETPDTAYSEKFEGRVTLTADKSTSTAYMELSSLTSEDTAVYYCTRFYSYTYWGQGTLVTVSS
VL: DIVMTQSPLSLPVTPGEPASISCRSSQSPVHSNRNTYIQWYQQKPGQAPRLLIYKVSNRFSGVPDRFSGSGSGTDFTLKISRVEAEDVGVYYCYQGTQVPYTFGQGTKLEIKR
notes: one-arm
As to B7, binding was characterised by a dissociation constant (Kd) of 0.00185 nM.

B8: GCH056-G1dh/none-Hi-Kn010G3/L0000-k0 (antibody, V domains shown)
VH: QVQLVQSGAEVKKPGASVTVSCKASGYTFTDYEMHWIRQPPGEGLEWIGAIDGETPDTAYSQKFEGRVTLTADKSTSTAYMELSSLTSEDTAVYYCTRFYSYTYWGQGTLVTVSS
VL: DIVMTQSPLSLPVTPGEPASISCRSSQSLVHSNRNTYLHWYQQKPGQAPRLLIYKVSNRFSGVPDRFSGSGSGTDFTLKISRVEAEDVGVYYCGQGTQVPYTFGQGTKLEIKR
notes: one-arm
In turn, B8 registered a Kd of 5.03 nM.

The values are drawn from patent US20250066503A1, “CELL INJURY INDUCING THERAPEUTIC DRUG FOR USE IN CANCER THERAPY” (CHUGAI SEIYAKU KABUSHIKI KAISHA, priority 2016, published 2025).
